Where two headings read alike, the source gives them in different places.
What was measured:
Test in all cases: SPR; Biacore 3000; HopZ1a proteins, GST or BSA immobilised on CM5 chips by amine coupling; 500 µg/ml (Figure S1A: 250 µg/ml) tubulin injected; 25°C, HBS-EP running buffer (0.01 M HEPES pH 7.4, 0.15 M NaCl, 3 mM EDTA, 0.005% Surfactant P20)
[1] = target: GST-HopZ1a (Pseudomonas syringae pv. syringae A2) (UniProt Q6VE93)
[2] = target: HIS-HopZ1a (Pseudomonas syringae pv. syringae A2) (UniProt Q6VE93)
[3] = target: HIS-HopZ1a(C216A) (Pseudomonas syringae pv. syringae A2) (UniProt Q6VE93)
[4] = target: HIS-HopZ1a (Pseudomonas syringae pv. syringae A2) (UniProt Q6VE93); remark: listed apart in the source
[5] = target: HIS-HopZ1a(K289R) (Pseudomonas syringae pv. syringae A2) (UniProt Q6VE93)

Work on soybean tubulin (complex) yielded an RU difference [1] of 305 RU and an RU difference [2] of 1230 RU.

With “bovine brain tubulin heterodimers (from UniProt Q6B856 1-445) (complex)” the RU difference [1] was 36 RU, the RU difference [2] was 1050 RU and the RU difference (250 µg/ml tubulin) [2] was 630 RU. For the same substance, the RU difference (6973 RU HIS-HopZ1a immobilised) [2] was 59 RU, the RU difference (13598 RU HIS-HopZ1a immobilised) [2] was 324 RU and the RU difference (18289 RU HIS-HopZ1a immobilised) [2] was 615 RU. The RU difference [3] was 1150 RU, the RU difference (250 µg/ml tubulin) [3] was 463 RU and the RU difference [4] was 117 RU. It also gave an RU difference [5] of 186 RU.
